± gives the uncertainty stated by the source.
Assay: protein stability index of a GFP-peptide fusion (yeast GPS) (PSI 1-4); higher = more stable; sorted into four equal gates, so the index is relative within each strain
Outline: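 The protein stability index of a peptide was calculated by multiplying its read frequency in each gate by that gate's number and adding the products. The peptides were tiled 17-residue stretches of yeast proteins, fused downstream of GFP on a Cherry-expressing plasmid and carried in yeast as a pooled library. Mid-log cultures in leucine-free medium were sorted into four equal gates by GFP/Cherry ratio, and each gate's plasmids were PCR-amplified and Illumina-sequenced.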

| Sequence | protein stability index (doa10∆) | protein stability index (pdr5∆) | protein stability index (ubr1∆) | protein stability index (san1∆) |
| --- | --- | --- | --- | --- |
| TYEMRIHKRYIDLEAPV [RPS20] | 2.17 ± 0.16 | 2.71 ± 0.15 | 2.51 ± 0.28 |  |
| VCKKADVDLHKRAGELT [RPS18A] | 3.23 ± 0.15 | 3.31 ± 0.12 | 3.46 ± 0.11 | 3.39 ± 0.2 |
| VSLEERTKNLVSKMEKA [SMC4] |  | 2.95 ± 0.064 |  |  |
| YYNPQAGTKITICIELK [RGR1] | 2.16 ± 0.13 | 2.24 ± 0.23 | 2.48 ± 0.1 | 2.1 ± 0.13 |
| ETGYMSRRLMKSLEDLS [RPO31] | 2.45 ± 0.12 | 3.13 ± 0.25 |  | 3.02 ± 0.15 |
| NKIKLNILKILSSLILK [SRB8] | 1.79 ± 0.072 | 1.73 ± 0.074 | 1.87 ± 0.053 |  |
| VEISLVNGAKNLVVSGP [FAS1] | 2.76 ± 0.15 | 2.6 ± 0.1 | 2.51 ± 0.21 | 2.3 ± 0.1 |
| GDFGGWFCPCHGSHYDI [RIP1] | 2.87 ± 0.15 | 3.11 ± 0.078 | 3.18 ± 0.082 | 3 ± 0.058 |
| TRSLKYGKLRNGMFCQV [RRP4] | 1.42 ± 0.081 | 1.11 ± 0.1 | 1.07 ± 0.12 | 1.09 ± 0.13 |
| IAATGLNQINGLNNDFL [GRR1] | 3.34 ± 0.17 | 3.26 ± 0.14 | 3.19 ± 0.12 | 3 ± 0.1 |
| EVSTSTSMTGDANLLEE [SWI3] | 3.09 ± 0.13 | 3.23 ± 0.11 | 3.3 ± 0.041 | 3.24 ± 0.042 |
| SFFIASQLQEQFNKILP [FAS1] | 2.69 ± 0.15 | 3.13 ± 0.15 | 2.77 ± 0.07 | 2.54 ± 0.081 |
| KRLNFSFVGDYMHDTEL [GRR1] | 2.55 ± 0.065 | 1.89 ± 0.073 | 3.22 ± 0.085 | 2.47 ± 0.11 |
| TELVDKANIFQVIKNEV [SSN2] |  | 2.54 ± 0.18 | 3.16 ± 0.17 | 2.97 ± 0.2 |
| TTSVDVMLKGIVTALLE [SRP54] | 1.27 ± 0.047 | 1.22 ± 0.056 | 1.11 ± 0.04 | 1.18 ± 0.1 |
| AELKLAGEFGLKNKREI [RPS9B] | 3.08 ± 0.11 | 3.21 ± 0.15 | 3.21 ± 0.12 | 3.2 ± 0.18 |
| DFKTDVDEPMTSAVELG [YJL039C/NUP192] | 2.17 ± 0.073 | 2.28 ± 0.068 | 2.85 ± 0.06 | 2.54 ± 0.13 |
| LLVVIFKKTLRSRISSP [SRB4] | 1.53 ± 0.085 | 1.66 ± 0.094 | 1.95 ± 0.11 | 1.77 ± 0.13 |
| QTSRGLFGNNNTNNINN [YGL172W/NUP49] | 3.1 ± 0.18 | 3.04 ± 0.13 | 3.14 ± 0.16 | 3.13 ± 0.16 |
| TATGIKVFSLDPQYLVD [ASC1] | 2.52 ± 0.049 | 2.67 ± 0.044 | 2.58 ± 0.032 | 2.89 ± 0.039 |
| DYKTAFSYFFESFESYH [RPN6] | 2.37 ± 0.058 | 2.77 ± 0.065 | 2.55 ± 0.033 | 2.59 ± 0.067 |
| ANIFRIHSKSMSVERGI [RPT1] | 3.16 ± 0.11 | 3.01 ± 0.14 | 2.9 ± 0.13 | 3.18 ± 0.13 |
| LIAVYYSFGGLLMRLEG [RPB8] | 2.69 ± 0.059 | 2.79 ± 0.076 | 2.89 ± 0.069 | 3.07 ± 0.1 |
| YIKYNILLTSISRERDL [SRP68] | 1.69 ± 0.07 | 1.58 ± 0.062 | 1.91 ± 0.094 | 1.83 ± 0.12 |
| EARLPSQVVWIRRLRVL [RPL19A] | 1.31 ± 0.072 | 1.63 ± 0.078 | 1.44 ± 0.075 | 1.33 ± 0.11 |
| PQGRQSTTFADCPVVPA [RPC40] | 2.89 ± 0.067 | 2.92 ± 0.078 | 2.87 ± 0.059 | 2.49 ± 0.1 |

| Sequence | protein stability index (doa10∆) | protein stability index (pdr5∆) | protein stability index (ubr1∆) | protein stability index (san1∆) |
| --- | --- | --- | --- | --- |
| LAAPQLVQMYIGEGAKL [RPT5] |  |  |  | 2.48 ± 0.26 |
| TTVFFSRQKSGLFDSFT [YML031W/NDC1] | 1.49 ± 0.042 | 1.45 ± 0.055 | 1.55 ± 0.048 | 1.54 ± 0.11 |
| NKLTGKQIVFEIPSETH [RPS7A] | 3 ± 0.09 | 2.95 ± 0.091 | 2.78 ± 0.11 | 2.86 ± 0.068 |
| DDYDYVMYGTAYKFEEV [RPB8] | 2.55 ± 0.041 | 2.89 ± 0.048 | 2.72 ± 0.051 | 2.95 ± 0.055 |
| GATKIVREHYLRSDIPC [DIS3] | 2.67 ± 0.069 | 2.63 ± 0.067 | 2.43 ± 0.054 | 2.1 ± 0.093 |
| AARHRARFRSIHILKVA [RPL20A] | 1.22 ± 0.077 | 1.18 ± 0.042 | 1.1 ± 0.059 | 1.22 ± 0.11 |
| DSLRKLYVDSESTSSTE [MTW1] | 2.86 ± 0.072 | 3.51 ± 0.1 | 3 ± 0.068 | 3.16 ± 0.1 |
| QDVLQMLGRAGRPRYDT [BRR2] | 3.41 ± 0.21 | 2.56 ± 0.23 | 2.81 ± 0.28 | 3.43 ± 0.14 |
| SGNTNGAGSAFGFSSSG [YOR098C/NUP1] | 3.25 ± 0.071 | 3.13 ± 0.064 | 3.02 ± 0.087 | 3.07 ± 0.064 |
| NDELVELLANKCPLLVE [GRR1] | 2.08 ± 0.058 | 2.13 ± 0.04 | 1.96 ± 0.035 | 2.1 ± 0.078 |
| SLKGLQSKLKDVVEYLD [RPN8] | 2.92 ± 0.083 | 2.27 ± 0.055 | 2.48 ± 0.048 | 2.71 ± 0.069 |
| LTIVTCKQFPKLSCIQL [SRB8] | 1.99 ± 0.07 | 1.86 ± 0.058 | 1.6 ± 0.03 | 1.46 ± 0.05 |
| MVAYSPIIATYGNRAEQ [SRP68] | 2.18 ± 0.085 | 2.54 ± 0.059 | 2.78 ± 0.073 | 2.7 ± 0.082 |
| NLLIQRLNFNQNSSKIV [SWI3] | 2.71 ± 0.053 | 2.81 ± 0.051 | 2.93 ± 0.041 | 3.06 ± 0.038 |
| NEEINKKSLEEDDEFED [SEM1] |  | 3.33 ± 0.11 |  | 2.9 ± 0.25 |
| IIKKDEVVKRYLKMRQD [PUP3] | 3.66 ± 0.2 |  |  |  |
| VEIAYHKCDELITLFNK [RPO31] | 3.16 ± 0.19 | 3.01 ± 0.087 | 2.96 ± 0.1 | 2.99 ± 0.078 |
| NTHAVLVALKRNADELS [PRE5] | 2.13 ± 0.067 | 2.69 ± 0.05 | 2.41 ± 0.039 | 2.45 ± 0.05 |
| LDNSKMDYHFIFSYLQF [RGR1] | 2.45 ± 0.061 | 1.72 ± 0.056 | 1.8 ± 0.065 | 1.89 ± 0.047 |
| PVIGVFQKFLTGHPKGA [FAS2] | 3.34 ± 0.19 | 2.79 ± 0.16 | 3.52 ± 0.24 | 2.57 ± 0.2 |
| NLLCYYNLRSLNLINAK [RPN3] | 1.48 ± 0.049 | 1.71 ± 0.06 | 1.25 ± 0.041 | 1.36 ± 0.12 |
| EINETEFIRCGCLIKNL [RMP1] | 2.48 ± 0.11 | 2.98 ± 0.096 | 2.91 ± 0.055 | 2.82 ± 0.099 |
| HHELVPKHIRLSSDEKR [RPB5] | 2.9 ± 0.12 | 3.54 ± 0.12 | 3.16 ± 0.073 | 2.82 ± 0.18 |
| HGHLGFLPRKRAASIRA [RPL3] | 2.1 ± 0.086 | 2.44 ± 0.067 | 2.2 ± 0.077 | 2.79 ± 0.055 |
| EVTEEQAEATEWAEENA [RPS0A] | 3.48 ± 0.13 | 3.51 ± 0.1 | 3.62 ± 0.095 | 2.99 ± 0.13 |
